The results in this text go back to paper PMC10248553 (The Journal of Biological Chemistry, 2023).

One experiment has as its target RSK2 (44–367) (human, UniProt P51812 44-367). Nature of the experiment: ITC. For orientation: ITC needs no label: the signal is the heat of the interaction.
A further experiment has as its target RSK2 (46–346) (human, UniProt P51812 46-346). Nature of the experiment: crystal structure.

Where no end group is shown, it is not given here.

What is called Kd is a measure of binding affinity in units of concentration. In turn, Ac-GDDDVFTTATDS [SPRED2 (140–151) peptide] gave a Kd with RSK2 (44–367) of 36 µM. For Ac-STIHNEAELGDDDVFTTATDSSSNSSQKRE [SPRED2 (131–160) peptide], the binding result with RSK2 (44–367) and with RSK2 (46–346) was “binds” throughout.

B1: SPRED2 (11–181) (domain or fragment)
chain: SYIVRVKAVVMTRDDSSGGWFPQEGGGISRVGVCKVMHPEGNGRSGFLIHGERQKDKLVVLECYVRKDLVYTKANPTFHHWKVDNRKFGLTFQSPADARAFDRGVRKAIEDLIEGSTTSSSTIHNEAELGDDDVFTTATDSSSNSSQKREQPTRTISSPTSCEHRRIYTLG
Consider B1, for which, in the experiment with RSK2 (44–367), the binding result was “binds”.

B2: SPRED2 (104–181) (domain or fragment)
chain: SPADARAFDRGVRKAIEDLIEGSTTSSSTIHNEAELGDDDVFTTATDSSSNSSQKREQPTRTISSPTSCEHRRIYTLG
In the case of B2, the Kd in the experiment with RSK2 (44–367) was ~9 µM.

Molecule Ac-ELGDDDVFTTATDSSS [SPRED2 (138–153) peptide] came in with a Kd with RSK2 (44–367) of 20 µM.
